Measurements as given in IntAct's records for PubMed 18045938.

B1: Envelope glycoprotein B (Human herpesvirus 8), F5HB81 (parent)
chain: MTPRSRLATLGTVILLVCFCAGAAHSRGDTFQTSSSPTPPGSSSKAPTKPGEEASGPKSVDFYQFRVCSASITGELFRFNLEQTCPDTKDKYHQEGILLVYKKNIVPHIFKVRRYRKIATSVTVYRGLTESAITNKYELPRPVPLYEISHMDSTYQCFSSMKVNVNGVENTFTDRDDVNTTVFLQPVEGLTDNIQRYFSQPVIYAEPGWFPGIYRVRTTVNCEIVDMIARSAEPYNYFVTSLGDTVEVSPFCYNESSCSTTPSNKNGLSVQVVLNHTVVTYSDRGTSPTPQNRIFVETGAYTLSWASESKTTAVCPLALWKTFPRSIQTTHEDSFHFVANEITATFTAPLTPVANFTDTYSCLTSDINTTLNASKAKLASTHVPNGTVQYFHTTGGLYLVWQPMSAINLTHAQGDSGNPTSSPPPSASPMTTSASRRKRRSASTAAAGGGGSTDNLSYTQLQFAYDKLRDGINQVLEELSRAWCREQVRDNLMWYELSKINPTSVMTAIYGRPVSAKFVGDAISVTECINVDQSSVNIHKSLRTNSKDVCYARPLVTFKFLNSSNLFTGQLGARNEIILTNNQVETCKDTCEHYFITRNETLVYKDYAYLRTINTTDISTLNTFIALNLSFIQNIDFKAIELYSSAEKRLASSVFDLETMFREYNYYTHRLAGLREDLDNTIDMNKERFVRDLSEIVADLGGIGKTVVNVASSVVTLCGSLVTGFINFIKHPLGGMLMIIIVIAIILIIFMLSRRTNTIAQAPVKMIYPDVDRRAPPSGGAPTREEIKNILLGMHQLQQEERQKADDLKKSTPSVFQRTANGLRQRLRGYKPLTQSLDISPETGE

Variants of: B1
Conditions: with itb3_human ITGB3, P05106
Chain of itb3_human ITGB3, P05106 (P05106 whole entry): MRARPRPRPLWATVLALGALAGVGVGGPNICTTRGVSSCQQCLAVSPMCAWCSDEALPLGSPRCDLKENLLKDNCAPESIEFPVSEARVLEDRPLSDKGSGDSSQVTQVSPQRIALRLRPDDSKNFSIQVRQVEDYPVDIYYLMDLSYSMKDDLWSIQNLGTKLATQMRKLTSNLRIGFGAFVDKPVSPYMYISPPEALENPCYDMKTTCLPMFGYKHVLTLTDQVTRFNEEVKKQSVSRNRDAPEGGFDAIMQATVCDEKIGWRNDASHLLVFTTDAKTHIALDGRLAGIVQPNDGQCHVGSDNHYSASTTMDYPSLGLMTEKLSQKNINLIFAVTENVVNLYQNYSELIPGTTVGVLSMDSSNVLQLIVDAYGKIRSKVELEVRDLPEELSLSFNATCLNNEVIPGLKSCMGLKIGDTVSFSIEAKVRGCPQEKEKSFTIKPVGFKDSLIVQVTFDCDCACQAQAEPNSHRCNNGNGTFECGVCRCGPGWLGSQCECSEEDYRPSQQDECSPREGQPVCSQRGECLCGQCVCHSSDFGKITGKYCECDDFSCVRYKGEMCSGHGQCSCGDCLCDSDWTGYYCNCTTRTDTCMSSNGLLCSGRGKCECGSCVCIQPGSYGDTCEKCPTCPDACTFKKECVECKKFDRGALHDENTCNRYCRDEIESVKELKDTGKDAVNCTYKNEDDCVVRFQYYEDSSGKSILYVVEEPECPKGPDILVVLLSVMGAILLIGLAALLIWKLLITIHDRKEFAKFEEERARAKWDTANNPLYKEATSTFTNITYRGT

Variant | effect of a mutation on the interaction
D29E | disrupting interaction
